In this assay the target is T1, biotinylated AFP158/HLA-A*02:01 tetramer (human, biotinylated via the BSP peptide linked to the C-terminal end of the HLA-A*02:01 extracellular domain).
T1 construct: also called AFP158 tetramer; not shown: BSP peptide (BirA biotinylation site) at the C-terminus
Put plainly: flow cytometry, AFP158/HLA-A*02:01 tetramer staining of CAR-transduced T cells. A general note: In flow cytometry, cells or beads pass a laser one at a time.

B1: Anti-AFP-CD28z-CAR (other)
chain: QSVLTQPASVSGSPGQSITISCTGTSSDVGGYNYVSWYQQHPGKAPKLMIYDVNNRPSEVSNRFSGSKSGNTASLTISGLQAEDEADYYCSSYTTGSRAVFGGGTKLTVLGSRGGGGSGGGGSGGGGSLEMAEVQLVQSGAEVKKPGESLTISCKASGYSFPNYWITWVRQMSGGGLEWMGRIDPGDSYTTYNPSFQGHVTISIDKSTNTAYLHWNSLKASDTAMYYCARYYVSLVDIWGQGTLVTVSSEQKLISEEDLAAAIEVMYPPPYLDNEKSNGTIIHVKGKHLCPSPLFPGPSKPFWVLVVVGGVLACYSLLVTVAFIIFWVRSKRSRLLHSDYMNMTPRRPGPTRKHYQPYAPPRDFAAYRSRVKFSRSADAPAYQQGQNQLYNELNLGRREEYDVLDKRRGRDPEMGGKPRRKNPQEGLYNELQKDKMAEAYSEIGMKGERRRGKGHDGLYQGLSTATKDTYDALHMQALPPR
notes: Chimeric antigen receptor on transduced primary human T cells: anti-AFP/MHC scFv, myc tag, CD28 TM, CD28 costimulatory domain, CD3zeta; also called αAFP -CD28z CAR
Take B1: the binding result is “binds”.

B2: Anti-AFP-CD30z-CAR (other)
chain: QSVLTQPASVSGSPGQSITISCTGTSSDVGGYNYVSWYQQHPGKAPKLMIYDVNNRPSEVSNRFSGSKSGNTASLTISGLQAEDEADYYCSSYTTGSRAVFGGGTKLTVLGSRGGGGSGGGGSGGGGSLEMAEVQLVQSGAEVKKPGESLTISCKASGYSFPNYWITWVRQMSGGGLEWMGRIDPGDSYTTYNPSFQGHVTISIDKSTNTAYLHWNSLKASDTAMYYCARYYVSLVDIWGQGTLVTVSSEQKLISEEDLAAATGAPPLGTQPDCNPTPENGEAPASTSPTQSLLVDSQASKTLPIPTSAPVALSSTGKPVLDAGPVLFWVILVLVVVVGSSAFLLCHRRACRKRIRQKLHLCYPVQTSQPKLELVDSRPRRSSTQLRSGASVTEPVAEERGLMSQPLMETCHSVGAAYLESLPLQDASPAGGPSSPRDLPEPRVSTEHTNNKIEKIYIMKADTVIVGTVKAELPEGRGLAGPAEPELEEELEADHTPHYPEQETEPPLGSCSDVMLSVEEEGKEDPLPTAASGKRVKFSRSADAPAYQQGQNQLYNELNLGRREEYDVLDKRRGRDPEMGGKPRRKNPQEGLYNELQKDKMAEAYSEIGMKGERRRGKGHDGLYQGLSTATKDTYDALHMQALPPR
notes: Chimeric antigen receptor on transduced primary human T cells: anti-AFP/MHC scFv, myc tag, CD30 TM, CD30 costimulatory domain, CD3zeta; also called αAFP -CD30z CAR
B2: the binding result is given as “binds”.

The values are drawn from US20220265715A1 (EUREKA THERAPEUTICS, published 2022).
